The source of these data is publication PMC5291005, “Listeria monocytogenes 10403S Arginine Repressor ArgR Finely Tunes Arginine Metabolism Regulation under Acidic Conditions” (Frontiers in Microbiology, 2017).

This series deals with the molecule itself. Put plainly: cross-linking; purified N-terminal His6-ArgR cross-linked with various amounts of glutaraldehyde (multimers at 0.05%) in 50 mM HEPES pH 8.0, 150 mM KCl, 1 mM L-arginine, with or without 1% beta-mercaptoethanol, room temperature, 2 h; 10% SDS-PAGE, Coomassie staining.

Values joined by “and” are separate entries in the source; they are usually repeats but may differ in a detail not shown here. Identical values can stand only once.

B1: Listeria monocytogenes 10403S arginine repressor ArgR (natural protein, UniProt B8DFW1 1-149, looked up)
chain: MNKGHRHIIIRELITSNEIDTQEDLVELLLERDVKVTQATVSRDIKELHLVKVPTQTGGYKYSLPADNSFNPHQKLKRALIDCFIGIDNVQFMIILKVMPGNGNSVGALIDNLDWPEKAGTICGDDTCLIICRSEENAKTLTDRFIDML
notes: ArgR, arginine repressor of the ArgR/AhrC family, Listeria monocytogenes strain 10403S; full-length ORF amplified from the 10403S genome; the his-tagged protein runs at about 23 kDa; also called recombinant ArgR; his-tagged ArgR protein; not shown: His6, N-terminal, kept
With B1, the “stoichiometry N” value is 3 and 6.
